This is an account of results in patent US10829799 (UNIVERSITY COURT OF THE UNIVERSITY OF DUNDEE, dated 2020).

For the assay, the target named is T1, NAE (NEDD8 E1; Dac-NAE1-UBA3) (UniProt Q13564 1-534; Q8TBC4 1-463).
T1 construct: Co-expressed in Sf21 cells from pFastBacDual; not shown: Dac tag
T1 sequence (looked up) 1: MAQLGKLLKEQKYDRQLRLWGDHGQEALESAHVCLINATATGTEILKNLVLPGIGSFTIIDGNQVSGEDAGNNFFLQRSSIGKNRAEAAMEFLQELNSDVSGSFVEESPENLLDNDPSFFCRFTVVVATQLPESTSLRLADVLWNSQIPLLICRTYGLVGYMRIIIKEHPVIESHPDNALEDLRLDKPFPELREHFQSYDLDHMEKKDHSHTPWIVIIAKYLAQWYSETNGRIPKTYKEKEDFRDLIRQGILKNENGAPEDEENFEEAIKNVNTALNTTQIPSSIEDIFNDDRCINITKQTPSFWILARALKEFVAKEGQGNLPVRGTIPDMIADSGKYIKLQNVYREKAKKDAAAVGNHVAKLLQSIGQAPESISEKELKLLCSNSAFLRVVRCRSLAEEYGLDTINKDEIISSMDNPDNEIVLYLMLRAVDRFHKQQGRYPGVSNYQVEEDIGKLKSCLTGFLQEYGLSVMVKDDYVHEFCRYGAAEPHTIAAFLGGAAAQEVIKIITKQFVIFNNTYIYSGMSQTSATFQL
T1 sequence (looked up) 2: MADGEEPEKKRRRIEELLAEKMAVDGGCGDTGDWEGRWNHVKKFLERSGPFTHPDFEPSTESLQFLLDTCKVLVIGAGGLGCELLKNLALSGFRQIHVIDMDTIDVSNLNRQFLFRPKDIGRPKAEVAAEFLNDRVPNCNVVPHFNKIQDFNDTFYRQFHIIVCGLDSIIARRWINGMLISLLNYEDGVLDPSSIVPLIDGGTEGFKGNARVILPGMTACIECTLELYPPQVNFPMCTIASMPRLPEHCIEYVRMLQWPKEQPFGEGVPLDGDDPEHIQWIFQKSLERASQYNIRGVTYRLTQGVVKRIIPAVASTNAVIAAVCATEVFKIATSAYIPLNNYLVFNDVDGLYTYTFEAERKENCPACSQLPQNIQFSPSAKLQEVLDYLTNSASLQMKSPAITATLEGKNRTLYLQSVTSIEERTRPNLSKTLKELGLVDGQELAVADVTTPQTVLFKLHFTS
The experiment in a line: covalent activity-based labelling, SDS-PAGE (FIG. 3C). Here is the method:
E2 probes (14 μM) were mixed with E1 enzyme (3.5 μM) and diluted 10× reaction buffer (500 mM Na_2HPO_4 pH 8) or 10×Ub-ATP buffer (500 mM Na_2HPO_4 pH 8, 20 μM ubiquitin, 20 mM ATP) to a final volume of 15-50 μL. Reactions were incubated at 30° C. and 15 μL aliquots were taken at 1 and 5 h time points which were quenched with 5 μL of reducing SDS-gel loading buffer (NuPAGE LDS loading buffer (4×), 715 mM 2-mercaptoethanol). The quenched reaction solutions were boiled for 5 minute at 100° C. and then 4 μL was analysed by SDS-PAGE (NuPAGE Bis-Tris, 4-12%).

B1: UBE2M-=CN (enzyme)
chain: MGSSHHHHHHSSGLEVLFQGPGSPEFPGVDSKAAAMIKLFSLKQQKKEEESAGGTKGSSKKASAAQLRIQKDINELNLPKTCDISFSDPDDLLNFKLVICPDEGFYKSGKFVFSFKVGQGYPHDPPKVKCETMVYHPNIDLEGNVCLNILREDWKPVLTINSIIYGLQYLFLEPNPEDPLNKEAAEVLQNNRRLFEQNVQRSMRGGYIGSTYFERCLK
modifications: labelled with TDMA 1 (thioacrylonitrile); 4 of 5 cysteines modified
notes: Legend notes a double band due to degradation of UBE2M
Take B1: the binding result is reported as “binds”.
